Laboratory results as given in patent EP0952217A2.

Target: SCCA1 recombinant protein expressed on transfected HepG2 and CHO cells (human) (UniProt P29508)
Assay: virus-to-cell binding assay: transfected cells incubated 20 min with HBV-positive serum and washed, cell-associated HBV-DNA measured by hybrid capture

Sequence of UniProt P29508 (P29508 whole entry T357A): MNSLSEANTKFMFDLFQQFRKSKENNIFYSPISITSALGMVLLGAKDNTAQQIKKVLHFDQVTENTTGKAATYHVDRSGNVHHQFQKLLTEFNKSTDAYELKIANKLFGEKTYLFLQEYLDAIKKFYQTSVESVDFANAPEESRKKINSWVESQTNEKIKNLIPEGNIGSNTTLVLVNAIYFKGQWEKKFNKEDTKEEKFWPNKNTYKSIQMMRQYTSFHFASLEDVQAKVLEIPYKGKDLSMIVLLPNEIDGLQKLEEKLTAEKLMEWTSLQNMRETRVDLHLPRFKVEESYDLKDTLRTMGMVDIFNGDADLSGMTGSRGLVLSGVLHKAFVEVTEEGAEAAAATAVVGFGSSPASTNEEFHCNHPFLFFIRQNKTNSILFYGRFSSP

Substance: HBV viral particles from HBV-DNA positive serum of patients with acute hepatitis B
- HBV-DNA value, fold over the control cell lines: > 8 .fold
